The record followed here is patent US20230272064A1.

For assay [1], the target named is recombinant human TIGIT extracellular membrane protein with a C-terminal histidine tag (human) (UniProt Q495A1). Put plainly: competitive ELISA, TIGIT-His coated, competitor fixed biotin-CD155-Fc (signal), mAb at 0.625 µg/mL. A general note: ELISA stands for enzyme-linked immunosorbent assay.
Assay [2] has the same target. Briefly: competitive ELISA, TIGIT-His coated, competitor fixed biotin-CD155-Fc (signal), mAb at 0.039 µg/mL.
For assay [3] the target is unchanged. Put plainly: competitive ELISA, TIGIT-His coated, competitor fixed biotin-CD155-Fc (signal), mAb at 0.010 µg/mL.
Assay [4] shares this target. Briefly: competitive ELISA, TIGIT-His coated, competitor fixed biotin-CD155-Fc (signal), mAb at 0.019 µg/mL.
The target is the same in assay [5]. Briefly: competitive ELISA, TIGIT-His coated, competitor fixed biotin-CD155-Fc (signal), mAb at 0.005 µg/mL.
Assay [6] shares this target. Put plainly: competitive ELISA, TIGIT-His coated, competitor fixed biotin-CD155-Fc (signal), mAb at 10 µg/mL.
Assay [7] has the same target. Briefly: competitive ELISA, TIGIT-His coated, competitor fixed biotin-CD155-Fc (signal), mAb at 0.312 µg/mL.
The target is the same in assay [8]. Put plainly: competitive ELISA, TIGIT-His coated, competitor fixed biotin-CD155-Fc (signal), mAb at 5 µg/mL.
Assay [9] has the same target. Put plainly: competitive ELISA, TIGIT-His coated, competitor fixed biotin-CD155-Fc (signal), mAb at 2.5 µg/mL.
Assay [10] has the same target. Briefly: competitive ELISA, TIGIT-His coated, competitor fixed biotin-CD155-Fc (signal), mAb at 0.156 µg/mL.
For assay [11] the target is unchanged. Briefly: competitive ELISA, TIGIT-His coated, competitor fixed biotin-CD155-Fc (signal), mAb at 1.25 µg/mL.
For assay [12] the target is unchanged. Briefly: competitive ELISA, TIGIT-His coated, competitor fixed biotin-CD155-Fc (signal), mAb at 0.078 µg/mL.

Chain of recombinant human TIGIT extracellular membrane protein with a C-terminal histidine tag (human) (Q495A1 22-141): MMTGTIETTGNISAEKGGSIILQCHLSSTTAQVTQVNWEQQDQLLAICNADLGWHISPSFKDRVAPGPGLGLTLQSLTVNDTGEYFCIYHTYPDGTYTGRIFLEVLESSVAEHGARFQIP

anti-VEGF monoclonal antibody hPV19: the OD at 492 nm in assay [1] is 1.06 OD; in assay [2] it was 1.05 OD; in assay [3], 1.1 OD; in assay [4] it was 1.08 OD; in assay [5] it was 1.11 OD; in assay [6] it was 1.11 OD. Further, the OD at 492 nm in assay [7] came out at 1.03 OD; in [8] it was 1.1 OD; in assay [9], 1.07 OD; in assay [10], 1.05 OD; in assay [11] it was 1.08 OD; in assay [12] it was 1.05 OD.
